T1: monkey CD22 protein (ACROBiosystems, catalog number SI2-R52Ha) (monkey, UniProt F6W485 20-688)
T1 construct: commercial protein; also called monkey CD22-ECD; monkey CD22-ECD-His
T1 sequence: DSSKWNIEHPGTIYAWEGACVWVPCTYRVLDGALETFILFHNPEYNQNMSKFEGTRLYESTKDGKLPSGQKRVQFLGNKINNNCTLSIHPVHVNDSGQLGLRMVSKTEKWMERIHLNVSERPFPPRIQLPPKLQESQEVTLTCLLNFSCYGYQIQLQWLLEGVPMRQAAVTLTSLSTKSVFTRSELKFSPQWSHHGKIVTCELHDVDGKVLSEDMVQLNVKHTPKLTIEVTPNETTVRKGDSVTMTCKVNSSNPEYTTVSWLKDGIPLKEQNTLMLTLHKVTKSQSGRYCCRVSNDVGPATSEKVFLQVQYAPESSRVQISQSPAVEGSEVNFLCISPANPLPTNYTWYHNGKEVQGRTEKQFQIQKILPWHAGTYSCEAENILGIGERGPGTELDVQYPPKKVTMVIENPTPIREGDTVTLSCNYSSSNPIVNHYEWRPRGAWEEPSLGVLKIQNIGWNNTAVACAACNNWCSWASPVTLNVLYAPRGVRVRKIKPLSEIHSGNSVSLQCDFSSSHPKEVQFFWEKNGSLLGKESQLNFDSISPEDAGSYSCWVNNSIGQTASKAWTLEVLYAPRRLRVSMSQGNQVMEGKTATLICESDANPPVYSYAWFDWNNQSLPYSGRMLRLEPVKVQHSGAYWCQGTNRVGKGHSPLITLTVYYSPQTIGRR

B1: F1.267.9 (antibody, human IgG1, kappa, V domains shown)
VH: EVQLQQSGPVLVKPGASVKMSCKASGYTFTDFYMNWAKQSHGKSLEWVGVINPYNGGINYNQKFKGKATLTVDKSSSTAYMEFNSLTSEDSAVYYCARRMEYHAMDYWGQGTSVTVSS
VL: DIVLTQSPASLAVSLGQRATISCRASESVDNYGFDFIHWYQQKPGQPPKLLIYRASNLESGIPARFSGSGSRPDFTLTINPVETDDVATYYCQQSIKDPWTFGGGTKLEIKR
notes: human-murine chimeric IgG1 kappa; VL name legible
B2: F1.7.6 (antibody, human IgG1, kappa, V domains shown)
VH: EIQLQQSGPELVKPGTSVKVSCKASGYDFTRYNMYWVKQSHGKSLEWIGYIDPYNGDTRYNQKFKGKATLTVDKSSSTAYMHLNSLTSEDSAVYYCEAIYYDMEGYALDYWGQGTSVTVSS
VL: DIVMSQSPSSLAVSVGEKVTMSCKSSQSLLYSNNQKNYLAWYQQKPGQSPKKLIYWASTRESGVPDRLTGSGSGTDFTLTISSVTAEDLAVYYCQQFYSYPWTFGGGTKLEIKR
notes: as for B1
B3: F1.105.11 (antibody, human IgG1, kappa, V domains shown)
VH: EVQLQQSGPVLVKPGASVKMSCKASGYTFSDYFMNWVKQSHGKSLEWIGIINSYSGGTSYNQKFKGKATLTVDKSSSTAYMELNSLTSEDSAVYYCARWMDYWGQGTSVTVSS
VL: DVQITQSPSYLAASPGETITINCRTSESISKHLAWYQEKPGKTNKLLIYSGSTLQSGIPSRFSGSGSGTDFTLTISSLEPEDFAMYYCQQHNEYPWTFGGGTKLEIKR
notes: as for B1
B4: F1.231.15 (antibody, IgG1, V domains shown)
VH: QVQLQQPGAELVKPGASVKLSCKTSGYTFTIYWMQWVKQRPGRGLEWIGRIDPHSGDTHYNENFTTKVTLTVDETSNTAYMHLSGLTSEDSAVYYCARRDYSYYVLDYWGQGTSVTVSS
VL: DVVLTQTPLSLPVSLGDQASISCRSSQSLVHINGDTYLHWYLQKPGQSPKLLIYTVFNRFSGVPDRFSGSGSGTDFTLKISRVEAEDLGAYFCSQSTHVPYTFGGGTKLEIKR
notes: human-murine chimeric IgG1 kappa
B5: F1.120.15 (antibody, human IgG1, kappa, V domains shown)
VH: QVQLQQSGPELVKPGASVKISCKASGNAFSNSWMNWVKQRPGKGLEWIGRVYSEDGDTQYNGKFRDKATLTADRSTSTAYMQLSSLTSEDSAVYFCARWLIYYGTYGAMDYWGQGTSVTVSS
VL: DIQMTQTTSSLSASLGDRVTISCRASQDINNYLNWYHQKPDGTVKLLIYFTSRPYSGVPSRFSGSGSGTDYSLTISNLEQEDIATYFCQQGNTLPWTFGGGTKLEIKR
notes: as for B4
B6: F1.250.16 (antibody, human IgG1, kappa, V domains shown)
VH: QVQLQQSGAEQVKPGASVKMSCKASGYTFTTYPIEWMKQNHGESLDWIGNIHPYNDDTEYNEKFKGKATLTVEKSSNTVFLELSRLTSDDSAVYYCVRGDYYNSRYWYFDVWGTGTTVTVSS
VL: DIVMTQSQKFMSTTVGDRVSITCKAGQNVRTAVAWYQQKPGQSPKLLIYSASTRYIGVPERFTGSGSGTDFTLTITNMQSEDLADYFCQQYSSFPLTFGTGTKLELKR
notes: as for B1
B7: F1.224.1 (antibody, human IgG1, kappa, V domains shown)
VH: EVLLHQSGPELVKPGASVKISCKASGYTFTDFNMDWVRQRHGQSLEWIGDVNPNNGGTIYNQKFKGKATLTVDKSSSTVYMDLRSLTSDDTAVYYCVRLGTSDYGEAWFISWGQGTVVTVSA
VL: DIVLTQSPASLAVSLGQRATISCRASQSVSTPRYSFMHWYQQKPGQPPKLLIKYASNLESGFPARFTGSGSGTDFTLNIHPVEEEDTAAYYCQQSWAIPWTFGGGTKLEIKR
notes: as for B1

Columns and labels:
[1] = target: T1, monkey CD22 protein (ACROBiosystems, …); test: ELISA, coated monkey CD22 protein, antibody 10 nM
Description: (§1) In order to detect the binding activity of CD22 human-murine chimeric antibodies to CD22 protein, the purified human CD22-ECD-His protein obtained in Example 2 was diluted with PBS to a final concentration of 2 μg/mL, and then added to 96-well ELISA plate at 100 μl/well. The plate was sealed with plastic film and incubated overnight at 4° C., the plate was washed 2 times with PBS the next day, and then a blocking solution [PBS+2% (w/w) BSA] was added for blocking at room temperature for 2 hours. […] After incubation at 37° C. for 2 hours, the plate was washed 3 times with PBS. HRP (horseradish peroxidase)-labeled secondary antibody (purchased from Sigma, catalog number: A0170) was added, and incubated at 37° C. for 2 hours, and the plate was washed 5 times with PBS. TMB substrate was added at 50 μl/well, and incubated at room temperature for 30 minutes, then a stop solution (1.0 N HCl) was added at 50 μl/well.
(§2) In order to detect the species cross-binding activity of the chimeric antibodies, an ELISA plate was coated with commercial murine CD22 protein (ACROBiosystems, catalog number: SI2-M52Ha) and monkey CD22 protein (ACROBiosystems, catalog number: SI2-R52Ha), respectively, and the ELISA detection was performed according to the method in Example 5.1.

[2] = target: T1, monkey CD22 protein (ACROBiosystems, …); test: ELISA, coated monkey CD22 protein, antibody 0.1 nM
Description: as §1, §2

[3] = target: T1, monkey CD22 protein (ACROBiosystems, …); test: ELISA, coated monkey CD22 protein, antibody 100 nM
Description: as §1, §2

[4] = target: T1, monkey CD22 protein (ACROBiosystems, …); test: ELISA, coated monkey CD22 protein, antibody 0.01 nM
Description: as §1, §2

[5] = target: T2, CD22 on cynomolgus monkey peripheral blood B cells (cynomolgus monkey (Macaca fascicularis)); test: FACS, cynomolgus PBMC, CD20+ B cells, antibody 1 nM
T2 construct: whole, on cells; also called cynomolgus monkey B cells
From the text: (§3) The monkey peripheral blood mononuclear cells were extracted from fresh cynomolgus monkey peripheral blood (purchased from Shanghai Medicilon Inc.) according to the instructions of Ficoll-Paque Plus (purchased from GE Healthcare, catalog number: 171440-02). After the cell suspension was centrifuged, the cells were resuspended in PBS containing 1% BSA, and then the cells were counted. At the same time, the murine antibody Brilliant Violet 605 anti-human CD20 (catalog number: 302334, purchased from Biolegend) with monkey CD20 cross-binding activity and the chimeric antibodies to be tested (1 nM, 10 nM and 100 nM) were added and incubated at room temperature for 1 hour. After washing the cells three times, APC-labeled secondary antibody anti-human IgG Fc (catalog number: 409306, purchased from Biolegend) was added. After incubation at room temperature in the dark for 30 minutes, the cells were washed 5 times, gently resuspended with PBS containing 1% BSA, and detected and analyzed by FACS (FACS Canto™, purchased from BD Company). Wherein CD20 was used as a marker of B cells, and the CD20-positive B cell population was gated, the proportion of chimeric antibody positive cells was analyzed, and the proportion of chimeric antibody positive cell population to B cell population was calculated after treatments with the chimeric antibodies at the concentrations of 100 nM, 10 nM and 1 nM, respectively. The scatter plot of double-stained cells by Brilliant Violet 605-labeled CD20 and APC secondary antibody indirectly labeled chimeric antibody is shown in FIG. 10A-FIG. 10B (under the condition of 1 nM of chimeric antibody concentration).

[6] = target: T1, monkey CD22 protein (ACROBiosystems, …); test: ELISA, coated monkey CD22 protein, antibody 0.001 nM
Description: as §1, §2

[7] = target: T2, CD22 on cynomolgus monkey peripheral …; test: FACS, cynomolgus PBMC, CD20+ B cells, antibody 10 nM
From the text: as §3

[8] = target: T1, monkey CD22 protein (ACROBiosystems, …); test: ELISA, coated monkey CD22 protein, antibody 0.0001 nM
Description: as §1, §2

[9] = target: T2, CD22 on cynomolgus monkey peripheral …; test: FACS, cynomolgus PBMC, CD20+ B cells, antibody 100 nM
From the text: as §3

[10] = target: T1, monkey CD22 protein (ACROBiosystems, …); test: ELISA, coated monkey CD22 protein, antibody 0.00001 nM
Description: as §1, §2

Binder	OD450 [1] [OD450]	OD450 [2] [OD450]	OD450 [3] [OD450]	OD450 [4] [OD450]	Proportion of chimeric antibody positive cells to B cells (%) [5] [%]	OD450 [6] [OD450]	Proportion of chimeric antibody positive cells to B cells (%) [7] [%]	OD450 [8] [OD450]	Proportion of chimeric antibody positive cells to B cells (%) [9] [%]	OD450 [10] [OD450]
B1	1.89	1.07	2.27	0.27	39	0.1	91	0.07	95	0.06
B2	0.17	0.07	0.44	0.06	17	0.06	28	0.06	43	0.06
B3	1.4	1.31	1.29	0.68	46	0.17	59	0.07	69	0.06
B4	0.31	0.17	0.45	0.09	11	0.06	16	0.06	29	0.06
B5	1.9	1.56	1.64	0.65	27	0.16	86	0.07	93	0.06
B6	2.97	2.81	3.08	2.62	92	1.02	95	0.23	97	0.1
B7	2.48	2.3	2.87	1.86	83	0.6	96	0.15	97	0.08
